According to patent US20230183347A1:

Biological target: human PD-1 (hPD-1) expressed on T cells (DO11.10 T cell hybridomas, DO11.10 mouse CD4+ T cells, activated human CD4+ T cells) (human) (UniProt Q15116)
Test: cell-based or functional assay

Sequence of UniProt Q15116 (Q15116 25-288 limits assumed): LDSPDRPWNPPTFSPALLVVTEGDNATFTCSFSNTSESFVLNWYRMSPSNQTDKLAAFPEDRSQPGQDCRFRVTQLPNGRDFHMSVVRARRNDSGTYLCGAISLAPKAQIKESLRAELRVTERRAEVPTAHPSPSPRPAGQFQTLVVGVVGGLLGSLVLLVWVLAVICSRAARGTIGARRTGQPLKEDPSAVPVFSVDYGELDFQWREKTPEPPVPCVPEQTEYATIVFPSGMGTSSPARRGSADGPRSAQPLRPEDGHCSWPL

IC50 of inhibitory activity on IL-2 production: 1 µg/mL
Substance: anti-human PD-1 antibody (clone: J116, Invitrogen)
